According to patent publication US20230265198A1 (TWIST BIOSCIENCE, published 2023):
Changes are numbered by the printed parent chain.

B1: NRP1-112 (VHH)
VHH: EVQLVESGGGLVQPGGSLRLSCAASGNIFINNAMGWFRQAPGKERELVAAITSSSGRRWYADSVKGRFTISADNSKNTAYLQMNSLKPEDTAVYYCAAYQRGWGDWGQGTLVTVSS
B2: NRP1-50 (VHH)
VHH: EVQLVESGGGLVQPGGSLRLSCAASGRTFNRYPMGWFRQAPGKEREWVAAISTSGGSTYYADSVKGRFTISADNSKNTAYLQMNSLKPEDTAVYYCAIHTSREIWGQGTLVTVSS
B3: NRP1-45 (VHH)
VHH: B2 VHH with I51A, S52H, T53W, S57R, T58M, Y59W
B4: NRP1-95 (VHH)
VHH: B2 VHH with V48I, A49S, I51L, S52A, T53P, S54G, S57N, T58R
B5: NRP1-97 (VHH)
VHH: EVQLVESGGGLVQPGGSLRLSCAASGFDFDNFDDYAMGWFRQAPGKEREFVAEIGWRDTTLYADSVKGRFTISADNSKNTAYLQMNSLKPEDTAVYYCARGRYDLSDFDYWGQGTLVTVSS
B6: NRP1-120 (antibody, IgG2, V domains shown)
VH: EVQLLESGGGLVQPGGSLRLSCAASGFTFKSYGMHWVRQAPGKGLEWVSEISPSGKKKYYADSVKGRFTISRDNSKNTLYLQMNSLRAEDTAVYYCAAPNDQSAAFDYWGQGTLVTVSS
VL: DIQMTQSPSSLSASVGDRVTITCKASDHIGKFLTWYQQKPGKAPKLLIYPKHNRPPGVPSRFSGSGSGTDFTLTISSLQPEDFATYYCQQSYDNPLTFGQGTKVEIK
B7: NRP1-113 (VHH)
VHH: EVQLVESGGGLVQPGGSLRLSCAASGHTFRGDVMGWFRQAPGKEREFVASISGSGTRTLYADSVKGRFTISADNSKNTAYLQMNSLKPEDTAVYYCARDVEGGWYGLSYGMDVWGQGTLVTVSS
B8: NRP1-111 (VHH)
VHH: EVQLVESGGGLVQPGGSLRLSCAASGIAFRIRTMGWFRQAPGKERELVAAITSSSGRRWYADSVKGRFTISADNSKNTAYLQMNSLKPEDTAVYYCAARRIVNVEGAYRDWGQGTLVTVSS
B9: NRP1-102 (VHH)
VHH: EVQLVESGGGLVQPGGSLRLSCAASGGTIRTMGWFRQAPGKEREFVATISWSGALTHYADSVKGRFTISADNSKNTAYLQMNSLKPEDTAVYYCAHRDNFWSAYYDFWGQGTLVTVSS
B10: NRP1-109 (VHH)
VHH: EVQLVESGGGLVQPGGSLRLSCAASGRTSRSYDMGWFRQAPGKEREFVASIDQSGESTAYADSVKGRFTISADNSKNTAYLQMNSLKPEDTAVYYCARADYYGSGSYFDYWGQGTLVTVSS
B11: NRP1-10 (VHH)
VHH: EVQLVESGGGLVQPGGSLRLSCAASGFTFSMWPMGWFRQAPGKEREFVARITGGGSTIWSRGDTYYADSVKGRFTISADNSKNTAYLQMNSLKPEDTAVYYCARADYYDSSAFDYWGQGTLVTVSS
B12: NRP1-110 (VHH)
VHH: EVQLVESGGGLVQPGGSLRLSCAASGRTFSNYSMGWFRQAPGKEREFVASIWWTFDAPYYADSVKGRFTISADNSKNTAYLQMNSLKPEDTAVYYCAKWDGLGTLWGQGTLVTVSS
B13: NRP1-127 (antibody, IgG2, V domains shown)
VH: EVQLLESGGGLVQPGGSLRLSCAASGFTFSNYGVSWVRQAPGKGLEWVSYISSSGSSTYYADSVKGRFTISRDNSKNTLYLQMNSLRAEDTAVYYCAKGARRFDYWGQGTLVTVSS
VL: DIQMTQSPSSLSASVGDRVTITCRASHNINSYLNWYQQKPGKAPKLLIYGKKNRPSGVPSRFSGSGSGTDFTLTISSLQPEDFATYYCGQSYRYPLTFGQGTKVEIK
B14: NRP1-101 (VHH)
VHH: EVQLVESGGGLVQPGGSLRLSCAASGRNRYGMGWFRQAPGKEREFVAAISRSGGSTNYADSVKGRFTISADNSKNTAYLQMNSLKPEDTAVYYCAKGGAQNYTWGQGTLVTVSS
B15: NRP1-104 (VHH)
VHH: EVQLVESGGGLVQPGGSLRLSCAASGFSFDDYVMGWFRQAPGKEREFVARISTSGSWTGYADSVKGRFTISADNSKNTAYLQMNSLKPEDTAVYYCAINYSPGYPDHWGQGTLVTVSS
B16: NRP1-103 (VHH)
VHH: EVQLVESGGGLVQPGGSLRLSCAASGRTLSRYTMGWFRQAPGKERELVATITSGGSTGYADSVKGRFTISADNSKNTAYLQMNSLKPEDTAVYYCAKDKWGVRGEFDSWGQGTLVTVSS
B17: NRP1-124 (antibody, IgG2, V domains shown)
VH: EVQLLESGGGLVQPGGSLRLSCAASGFDFSDYEMSWVRQAPGKGLEWVSRISVAGRRTAYADSVKGRFTISRDNSKNTLYLQMNSLRAEDTAVYYCAKGRRKLRATRFDYWGQGTLVTVSS
VL: DIQMTQSPSSLSASVGDRVTITCSGDKLRNKYASWYQQKPGKAPKLLIYETSKLASGVPSRFSGSGSGTDFTLTISSLQPEDFATYYCQQSFSVPAFGQGTKVEIK
B18: NRP1-94 (VHH)
VHH: EVQLVESGGGLVQPGGSLRLSCAASGRTFSTYASMGWFRQAPGKEREFVARIWPGGSTYYADSVKGRFTISADNSKNTAYLQMNSLKPEDTAVYYCARQFGAWLGEVVGPMDVWGQGTLVTVSS
B19: NRP1-136 (antibody, IgG2, V domains shown)
VH: EVQLLESGGGLVQPGGSLRLSCAASGFTFKDYGMNWVRQAPGKGLEWVSVISGSGGRPNYADSVKGRFTISRDNSKNTLYLQMNSLRAEDTAVYYCARVWRNHLDYWGQGTLVTVSS
VL: DIQMTQSPSSLSASVGDRVTITCSGDRLGEKYVSWYQQKPGKAPKLLIYGKKNRPSGVPSRFSGSGSGTDFTLTISSLQPEDFATYYCQAWASSTVVFGQGTKVEIK
B20: NRP1-108 (VHH)
VHH: EVQLVESGGGLVQPGGSLRLSCAASGNIPPINAMGWFRQAPGKEREWVATITSGGSTTYADSVKGRFTISADNSKNTAYLQMNSLKPEDTAVYYCARDRYFYDTSGNQRSSWFDPWGQGTLVTVSS
B21: NRP1-98 (VHH)
VHH: EVQLVESGGGLVQPGGSLRLSCAASGLNLSRLDMGWFRQAPGKEREFVAAISWSGDSTNYADSVKGRFTISADNSKNTAYLQMNSLKPEDTAVYYCARIHKAPYYGMDVWGQGTLVTVSS
B22: NRP1-107 (VHH)
VHH: EVQLVESGGGLVQPGGSLRLSCAASGRTFSNSGMGWFRQAPGKEREFVAAISWNGGTTNYADSVKGRFTISADNSKNTAYLQMNSLKPEDTAVYYCATLGGTVSGSHWSYFYYMDVWGQGTLVTVSS

target: T1, neuropilin-1 (NRP1) on HEK293 cells overexpressing NRP1 (UniProt O14786 22-923, limits assumed); assay: flow cytometry, HEK293-NRP1 vs HEK293
T1 construct: whole, on cells

Row | 100 nM FACS (MFI Ratio) | Binder
1 | 0.7 | B1
2 | 5.9 | B2
3 | 6.6 | B3
4 | 1.5 | B4
5 | 1.7 | B5
6 | 5.2 | B6
7 | 0.4 | B7
8 | 0.7 | B8
9 | 2.5 | B9
10 | 2.1 | B10
11 | 19.6 | B11
12 | 3.3 | B12
13 | 2.1 | B13
14 | 2.4 | B14
15 | 6.2 | B15
16 | 6.2 | B16
17 | 1200 | B17
18 | 2.8 | B18
19 | 128 | B19
20 | 0.9 | B20
21 | 1.2 | B21
22 | 2.8 | B22
